Substrate: NCCCC[C@H](N)C(=O)O
Assay: purified protein
Details: 5 mM acetyl-CoA, 50 mM Tris-HCl pH 10.0, 40 °C, 0.65 mM DTNB

B1: ShKAT (Salinicoccus halodurans) (protein)
chain: MWQTKKFNELSLSEIEQIFRLRQSIFIIEQQSYFADIDGKDTEAIHIFNKENNIIWAYCRILIYDEKVILGRVTVHSDKRGNGNGRELLNTALKYLKENYPDKFVQIVAMSYLKDFYKSYGFKSISEVYIMDDHPHEDMILKH
  Km: 1890 µM
